One data set deals with Asp143 (UniProt position 143, LSGFVDGTENP). As to the kind of experiment: kinetics. Particulars: 25 °C; 2 µM enzyme in 5 mM phosphate citrate buffer, pH 7.0, mixed with H2O2 in 100 mM phosphate citrate buffer, pH 3.0-8.0, or 100 mM glycine NaOH buffer, pH 8.0-10.0; ferric high-spin resting enzyme, folded, reacting with H2O2.
The target of data set [1] is KpDyP double variant D143A/R232A (Klebsiella pneumoniae). As to the kind of experiment: SEC-MALS; HPLC-SEC combined with multiangle light scattering; data not shown; conditions not given.
Data set [2] addresses KpDyP variant R232A (Klebsiella pneumoniae). The data set is described as above.
Data set [3] concerns the target KpDyP variant D143A (Klebsiella pneumoniae). Described as above.
Data set [4] deals with the molecule itself. The description is as above.

Consider five molecules from PMC6153280, “Roles of distal aspartate and arginine of B-class dye-decolorizing peroxidase in heterolytic hydrogen peroxide cleavage” (The Journal of Biological Chemistry, 2018).

“B-class dye-decolorizing peroxidase (KpDyP) (Klebsiella pneumoniae)”: the pKa entry with Asp143 is given as “far below 4.0”. For the molecule “KpDyP double variant D143A/R232A (enzyme)”, the stoichiometry N in data set [1] is 2. KpDyP variant R232A (enzyme): in data set [2], the stoichiometry N came out at 2.

Turning to KpDyP variant D143A (enzyme), the stoichiometry N in data set [3] was determined as 2.

B1: WT B-class dye-decolorizing peroxidase from Klebsiella pneumoniae (KpDyP) (enzyme, UniProt A0A0W8ATM9 1-299, looked up)
chain: MSQVQSGILPEHCRAAIWIEANLKGDVNALREASKIFVDNVATFQAKFPDAKLGAVVAFGNNVWRQLSGGEGADELKDFPVYGKGLAPSTQYDLLIHILSARHEVNFSVAQAALAAFGDAIDVKEEIHGFRWVEERDLSGFVDGTENPAGEETRREVAVIKDGVDAGGSYVFVQRWEHNLKQLNRMSVPDQEMMIGRTKDANEEIDGDERPVTSHLSRVDLKEDGKGLKIVRQSLPYGTASGTHGLYFCAYCARLYNIEQQLLSMFGDTDGKRDAMLRFTKPVTGGYYFAPSLERIQAL
notes: B-class dye-decolorizing peroxidase (KpDyP), Klebsiella pneumoniae; codon-optimized DNA cloned into pGEX-6P1 with primers that run from the ATG start to the stop codon; about 35 kDa per subunit; One heme b per subunit; also called WT KpDyP; source: E. coli BL21 (DE3) pLysS, purified (GSTrap, on-column HRV 3C cleavage, SEC)
With B1, the “stoichiometry N” value in data set [4] was found to be 2.
